Our source for the Binding Signal values is patent US20180371066A1.

Numbering of substitutions follows the chain as printed. Numbers in names are those of the source.

The target in assay [1] is T1, PEP_2875800.
T1 sequence (peptide): DHAGTYGLGDRKDQG
Nature of the assay: peptide array of 15-mers of human tau probed with the antibody; label LIN.

Assay [2] has as its target T2, PEP_2875802.
T2 sequence (peptide): HAGTYGLGDRKDQGG
The description is as above.

The target in assay [3] is T3, PEP_2875828.
T3 sequence (peptide): GGYTMHQDQEGDTDA
Described as above.

The target of assay [4] is T4, PEP_2875830.
T4 sequence (peptide): GYTMHQDQEGDTDAG
Described as above.

Assay [5] addresses T5, PEP_2875801.
T5 sequence (peptide): DHAGTYGLGAAKDQG
As to the kind of experiment: peptide array of 15-mers of human tau probed with the antibody; label LIN.AA (double alanine).

Assay [6] concerns the target T6, PEP_2875803.
T6 sequence (peptide): HAGTYGLGDAADQGG
The description is as above.

Assay [7] deals with T7, PEP_2875805.
T7 sequence (peptide): AGTYGLGDRAAQGGY
The description is as above.

The target in assay [8] is T8, PEP_2875807.
T8 sequence (peptide): GTYGLGDRKAAGGYT
The assay is described as above.

Assay [9] has as its target T9, PEP_2875813.
T9 sequence (peptide): GLGDRKDQGAATMHQ
Described as above.

Assay [10] has as its target T10, PEP_2875815.
T10 sequence (peptide): LGDRKDQGGAAMHQD
Described as above.

The target in assay [11] is T11, PEP_2875829.
T11 sequence (peptide): GGYTMHQDQAADTDA
The description is as above.

B1: murine anti-tau antibody HJ8.5 (antibody, V domains shown)
VH: EVKVEESGGGLVQPGGSMKLSCVVSGFTFSNYWVNWVRQSPEKGLEWVAQIRLKSDNYATHYEESVKGRFTISRDDSKSSVYLQMNNLRAEDSGIYYCTNWEDYWGQGTTLTVSS
VL: DIVLTQSPASLAVSLGQRATISCRASQSVSTSRYSYIHWYQQKPGQPPKLLIKYASNLESGVPARFSGSGSGTDFTLNIHPLEEEDAATYYCHHSWEIPLTFGAGTKLELK
For B1, the Binding Signal in [1] was 61; in assay [2], 63; in [3], 109; in assay [4], 77; in assay [5], 52; in [6], 51. Besides, the Binding Signal in assay [7] turned out to be 58; in assay [8], 110; in assay [9], 80; in assay [10] it was 69; in assay [11], 106.

B2: VH1/VK2 humanized anti-tau antibody (C2N-8E12) (antibody, human IgG4 S228P, kappa, V domains shown)
VH: B1 VH with E5V, S40A, E42G, L111V
VL: DIVLTQSPDSLAVSLGERATISCRASQSVSTSRYSYIHWYQQKPGQPPKLLIKYASNLESGVPSRFSGSGSGTDFTLNIHPLEPEDFATYYCHHSWEIPLTFGQGTKLEIKR
Consider B2, for which the Binding Signal worked out at 78 in [1]; 65 in assay [2]; 110 in assay [3]; 97 in [4]; 90 in [5]; 65 in [6]. In addition, the Binding Signal in [7] was 76; in assay [8], 114; in [9] it was 65; in [10] it was 99; in [11] it was 118.
